The subject of assay [1] is A549 cells. Put plainly: Tumor xenograft model. The class given is in vivo, C.B-17 SCID mice. The settings on record: for Days to Volume Doubling (ave, 95% CI): intraperitoneal every 3 days, 7 doses. How it is done: Fifty-six female C.B-17 SCID mice were inoculated with A549 cells (5×10^6 cells/mouse) subcutaneously in the flank. Once tumor volume reached ˜100 mm^3, animals were randomized amongst 7 groups of 8 mice each. Mice were then treated intraperitonealy every 3 days for a total of 7 doses with isotype controls or novel mAbs 79E3E3, 16E10 and 9G04 (2 and 20 mg/kg) or with docetaxel at 10 mg/kg every 4 days for a total of 6 doses. Tumor volumes and body weights were recorded twice a week with a gap of 2-3 days in between two measurements until any of the following conditions defined were observed: loss of 20% or more body weight; tumors that inhibit normal physiological function such as eating, drinking, and mobility; ulcerated tumors; tumor size greater than 2000 mm^3 and clinical observations of prostration, paralysis, seizures and hemorrhages.
In this example, studies were performed to determine if inhibition of α11β1 function with mAb results in xenograft growth inhibition. As shown in FIG. 16 and Table 4, blocking α11β1 on mouse CAFs impeded xenograft growth in SCID mice.

For assay [2], the target named is T1, α11β1 I Domain (Homo sapiens, UniProt Q9UKX5).
T1 sequence (Q9UKX5 164-345 limits assumed): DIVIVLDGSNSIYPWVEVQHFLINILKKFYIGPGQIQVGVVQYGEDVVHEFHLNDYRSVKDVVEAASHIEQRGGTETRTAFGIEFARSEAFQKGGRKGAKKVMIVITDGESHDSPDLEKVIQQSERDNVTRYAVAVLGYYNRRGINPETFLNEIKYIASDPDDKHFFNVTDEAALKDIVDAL
Put plainly: SPR binding to α11β1 I Domain. The settings on record: SPR data. Here is the method: The affinity of antibodies for human α11β1 was measured by surface plasmon resonance assay (SPR). Affinity was measured at pH 7.6 and 25° C. with a Biacore T200 instrument. Anti-HIS antibody was immobilized on the SPR sensor surface using EDC/NHS covalent attachment. HIS-tagged human α11β1 was captured on the sensor surface and a single-cycle kinetics assay was used. Increasing concentrations of test antibody were injected in series over the sensor-bound α11β1. Dissociation was monitored for 1000 seconds. A sensor surface with only anti-HIS antibody and a series of blank injections were used to double-reference subtract the data. A 1:1 Langmuir model was fit to the data to estimate the kinetic association and dissociation constants. The affinity (equilibrium dissociation constant) of the interaction was calculated by dividing the kinetic dissociation constant by the kinetic association constant. Between injection cycles α11β1 and bound antibody were removed with an injection of 10 mM glycine at pH 1.5.
The binding affinity of antibodies for the α11β1 Headpiece and α11β1 I Domain as measured by SPR is shown in FIG. 10A and FIG. 10B, respectively.

Assay [3] has as its system CHO cell lines expressing α11. Put plainly: Collagen gel contraction assay. The assay is classed as cell-based, human. The settings on record: for Inhibition of CHO-K1 gel contraction: Yes/No; for inhibition of CHO-hu α11-mediated collagen gel contraction: vs untreated. Here is the method: 24-well plates were blocked with 2% BSA in PBS overnight at 37° C. The following day, the plates were washed 3 times with PBS before being used in the assay. Human CHO cell lines expressing α11 were harvested and resuspended at 1.25×10^6 in ExpiCHO Expression Medium (Gibco™ Cat #A2910002). The collagen gel solution was prepared by diluting 3 mg/mL stock collagen type I (Gibco™ Collagen I Rat Protein, Tail Cat #A1048301) to 1 mg/mL in the media containing the CHO cells. Sodium hydroxide was added to the solution to neutralize the pH and 400 μL of the collagen solution was added to each well of the 24-well plates. For the wells where the antibodies were included in the collagen gel solution, CHO cells were prepared at 2.5×10^6 and the antibodies were prepared at 2× final concentration in ExpiCHO media. The cells and antibodies were then combined 1:1 before the addition of the stock collagen type 1. The gels were allowed to polymerize for 60 minutes at 37° C. Antibodies were added to the ExpiCHO media, which was then layered on top of the polymerized gel (400 μL/well). The gels were incubated for 6 days at 37° C. before gel contraction was quantified. Images of each well were analyzed using Image J and gel contraction was determined as a percentage of the initial gel area.
Selected exemplary antibodies were tested for the ability to inhibit cell-mediated 3D gel contraction because this ability is directly linked to the functionality of the exemplary antibodies.

B1: 79E3E3: rat anti-α11β1 mAb; VH SEQ ID NO: 145, VL SEQ ID NO: 146 (antibody, V domains shown)
VH: MDWLWNLLFLMVVAQSAQAQIQLVQSGPEVKKPGESVKISCKASGYTFTDYAMNWVKQAPGNGLKWMGWINTQTGKPTYADDFKQRFVFSLETSARTTYLQINNLNIEDTATYFCTRLGTGNTKGFAYWGQGTLVTVSS
VL: MESQTHVLISLLLCVSGTCGDILINQSPASLTVSAGERVTMSCKSSQSLLYSENNQDYLAWYQQKPGQFPKLLIYGASNRHTGVPDRFTGSGSGTDFTLTISSVQAEDLADYYCEQTYRYPFTFGSGTKLEIK
For the molecule B1, in assay [1] (2mpk), the “Days to Volume Doubling (ave, 95% CI)” value is reported as 8.5 (8.0, 9.0) Days. The “Days to Volume Doubling (ave, 95% CI)” value in assay [1] (20mpk) was 8.5 (8.0, 9.0) Days. The “inhibition of tumor growth compared to isotype control” value in assay [1] (A549 xenograft, SCID mice) was “significantly inhibited tumor growth”. In addition, the “binding to the I domain of α11β1” value in assay [2] is “do bind”. Also, in assay [3], the “Inhibition of CHO-K1 gel contraction” value is “Yes” and the “inhibition of CHO-hu α11-mediated collagen gel contraction” value is on record as “inhibited CHO-hu α11-mediated collagen gel contraction”.

B2: 16G7: rabbit anti-α11β1 mAb; heavy chain SEQ ID NO: 159, light chain SEQ ID NO: 160 (antibody)
heavy: METGLRWLLLVAVFKGVQCQEQLVESGGDLVKPGASLTLTCTASGFSFNKNYWMCWVRQAPGKGLEWIGCIYNGDGNTYYASWVNGRFTISKTSSTTVTLQMTSLTVADTAIYFCARLLNMWGPGTLVTVSSGQPKAPSVFPLAPCCGDTPSSTVTLGCLVKGYLPEPVTVTWNSGTLTNGVRTFPSVRQSSGLYSLSSVVSVTSSSQPVTCNVAHPATNTKVDKTVAPSTCSKPMCPPPELPGGPSVFIFPPKPKDTLMISRTPEVTCVVVDVSQDDPEVQFTWYINNEQVRTARPPLREQQFNSTIRVVSTLPIAHQDWLRGKEFKCKVHNKALPAPIEKTISKARGQPLEPKVYTMGPPREELSSRSVSLTCMINGFYPSDISVEWEKNGKAEDNYKTTPTVLDSDGSYFLYSKLSVPTSEWQRGDVFTCSVMHEALHNHYTQKSISRSPGK
light: MDTRAPTQLLGLLLLWLPGARCADIVMTQTPASVEAAVGGTVTIKCQASESIGNALAWYQQKPGQPPKLLIYTAATLASGVPSRFSGSGSGTEFTLTISGVQCDDAATYYCQSYYFTSVSSYGNAFGGGTEVVVKGDPVAPTVLIFPPAADQVATGTVTIVCVANKYFPDVTVTWEVDGTTQTTGIENSKTPQNSADCTYNLSSTLTLTSTQYNSHKEYTCKVTQGTTSVVQSFNRGDC
On to B2, for which the “Inhibition of CHO-K1 gel contraction” value in assay [3] was “No”.

B3: 8-I14: mouse anti-α11β1 mAb; VH SEQ ID NO: 109, VL SEQ ID NO: 110 (antibody, V domains shown)
VH: EVQLQQSGPELVKPGASVKKSCKASGYTFTDYYMHWVKQKPGQGLEWIGKIYPGSGNTHYNEKFKGKATLTADKSSSTAYMQLSSLTSEDSAVYFCATNYYGYRAMNYWGQGSSVTVSS
VL: DIHLTQSPSSLSASLGERISLTCRASQDIYISLNWFQQKPDGTIKLLIYGTSSLDSGVPKRFSGSRSGSDYSLTISSLESEDFADYYCLQYASSPYTFGGGTKLEIK
Regarding B3, in assay [3], the “Inhibition of CHO-K1 gel contraction” value is given as “No” and the “inhibition of CHO-hu α11-mediated collagen gel contraction” value was “inhibited CHO-hu α11-mediated collagen gel contraction”.

B4: 24E4G6: rat anti-α11β1 mAb; VH SEQ ID NO: 147, VL SEQ ID NO: 148 (antibody, V domains shown)
VH: MELELSLIFIFSLLKDVQCEVQLVESGGSLVQPGGSLKLSCVASGYTFSNYWMDWVRQSPGKSLEWIGEINTDGRRTNYAPSIKDRFTISRDNAKSTLYLQMSNVKSDDTAIYYCTILRVYPHYFDYWGQGVMVTVSS
VL: MMSPAQFLFLLMLWIQEARGDVVMTQTPPSLSVAIGQSVSISCKSSQSLVYSDGETYLHWFLQSPGRSPKRLIYHVSNLGSGVPDRFSGTGSLTDFTLRISRVEAEDLGVYYCAQTTHFPPTFGAGTKLELK
Regarding B4, in assay [3], the “Inhibition of CHO-K1 gel contraction” value is listed as “Yes”.

B5: 9-B11: mouse anti-α11β1 mAb; VH SEQ ID NO: 115, VL SEQ ID NO: 116 (antibody, V domains shown)
VH: QVQLQQPGAELVRPGTSVKLSCKASGYTFTSYWMHWVQQRPGQGLEWIGVIDPSDSYTNYNQKFKGKATLTVDTSSSSAYMQLSSLTSEDSAVYYCARDDVAMDYWGQGTSVTVSS
VL: DIVVTQSPASLAVSLGQRATISCRASESVDSYGNSFIHWYQQKPGQPPKLLIYRASNLKSGIPARFSGSGSRTDFTLTINPVEADDVATYYCQQSNEDPYTFGGGTKLEIK
In the case of B5, the “Inhibition of CHO-K1 gel contraction” value in assay [3] is “No”.

B6: 9-G05: mouse anti-α11β1 mAb; VH SEQ ID NO: 103, VL SEQ ID NO: 104 (antibody, V domains shown)
VH: EVQLQQSGPELVKPGASVKIPCKASGYTFPDYNMDWVKQSHGKSLEWIGYINPDNGGTIYNQKFKGKATLTVDKSSSTAYMELRSLTSEDTAVYYCARLDSSGYGYYAMDYWGQGTSVTVSS
VL: DIVLTQSPASLAVSLGQRATISCRASESVDNYGISFMHWYQQKPGQPPKLLIYRASNLDSEIPARFSGSGSRTDFTLTIDPVETDDVATYYCQQSYKDPRTFGGGTKLEIK
As to B6, the “binding to the I domain of α11β1” value in assay [2] is “do bind”. In addition, in assay [3], the “Inhibition of CHO-K1 gel contraction” value is reported as “Yes” and the “inhibition of CHO-hu α11-mediated collagen gel contraction” value is given as “inhibited CHO-hu α11-mediated collagen gel contraction”.

B7: 9-E16: mouse anti-α11β1 mAb; VH SEQ ID NO: 111, VL SEQ ID NO: 112 (antibody, V domains shown)
VH: EVQLQQSGPELVKPGASVKISCKASGYTFTDYYMHWVKQKPGQGLEWIGEIYPGSGNPYYNEKFKGKATLTADKSSSSAYMQLSSLTSEDSAVYFCARTSYGRVGTGFAYWGQGTLVTVSA
VL: NFVMTQTPLSLPVSLGDQASISCRSSQSLLHSNGNTYLHWYLQKPGQSPKLLIYKVSNRFSGVPDRFSGSGSGTDFTLKINRVETEDLGIYFCSQSSHVPTFGAGTKLELK
For B7, in assay [3], the “inhibition of CHO-hu α11-mediated collagen gel contraction” value is “inhibited CHO-hu α11-mediated collagen gel contraction”.
